The values below come from patent US20080021198.

This data set concerns the target PP2A A-C hetero-dimer (bovine brain, unmethylated) (UniProt Q32PI5).

Sequence of PP2A A-C hetero-dimer (bovine brain, unmethylated) (Q32PI5 2-589, chain 1 of 2): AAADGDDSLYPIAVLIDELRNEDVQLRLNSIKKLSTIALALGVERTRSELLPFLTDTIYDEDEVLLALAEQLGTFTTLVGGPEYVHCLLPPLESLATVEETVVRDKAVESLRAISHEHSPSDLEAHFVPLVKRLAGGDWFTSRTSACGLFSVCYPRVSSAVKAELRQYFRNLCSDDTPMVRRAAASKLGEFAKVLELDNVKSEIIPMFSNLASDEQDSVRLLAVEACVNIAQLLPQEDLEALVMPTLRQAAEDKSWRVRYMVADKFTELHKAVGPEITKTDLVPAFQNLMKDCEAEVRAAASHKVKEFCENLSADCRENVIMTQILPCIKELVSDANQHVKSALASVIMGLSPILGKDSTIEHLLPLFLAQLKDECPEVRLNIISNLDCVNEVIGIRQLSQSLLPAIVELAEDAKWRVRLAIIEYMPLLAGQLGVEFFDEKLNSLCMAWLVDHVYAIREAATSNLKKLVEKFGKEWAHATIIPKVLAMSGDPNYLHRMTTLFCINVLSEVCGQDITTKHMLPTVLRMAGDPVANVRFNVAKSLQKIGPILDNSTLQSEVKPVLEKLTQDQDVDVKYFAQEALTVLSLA
Sequence of PP2A A-C hetero-dimer (bovine brain, unmethylated) (chain, as listed by the source, chain 2 of 2): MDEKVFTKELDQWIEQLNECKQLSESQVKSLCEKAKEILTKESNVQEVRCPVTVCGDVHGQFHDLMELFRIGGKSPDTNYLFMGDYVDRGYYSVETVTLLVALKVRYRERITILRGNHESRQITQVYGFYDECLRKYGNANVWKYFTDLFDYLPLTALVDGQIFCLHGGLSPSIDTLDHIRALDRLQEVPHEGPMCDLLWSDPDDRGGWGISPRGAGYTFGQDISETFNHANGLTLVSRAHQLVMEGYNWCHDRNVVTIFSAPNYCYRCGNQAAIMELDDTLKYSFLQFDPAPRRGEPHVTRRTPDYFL

Turning to “PMTΔ19 (human PP2A methyl transferase with the N-terminal 19 residues truncated)”, the “enzyme activity (in vitro enzymatic assay, FIG. 7)” value was “Truncation of the N-terminal 19 amino acids did not appear to have any effect on the enzyme activity”.
